Assay results from patent US20040265972A1 (published 2004).

Target: T1, human TSH receptor stably expressed on Chinese Hamster Ovary (CHO) cells (CHO-hTSHR clone JP09 and clone JP26) (human, UniProt P16473 21-764)
T1 construct: whole, on cells; also called hTSH receptor; CHO-JPO9
Test: told in words; bioactivity assay on CHO-JPO9 cells expressing the TSH receptor

- binding result: binds
B1: mutant TSH heterodimer of wild type human common α-subunit and mutant human TSH-β subunit βE6N (ligand)
alpha: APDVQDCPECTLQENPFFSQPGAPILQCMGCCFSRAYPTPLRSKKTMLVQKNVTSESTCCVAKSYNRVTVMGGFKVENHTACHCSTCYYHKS
beta: FCIPTNYTMHIERRECAYCLTINTTICAGYCMTRDINGKLFLPKYALSQDVCTYRDFIYRTVEIPGCPLHVAPYFSYPVALSCKCGKCNTDYSDCIHEAIKTNYCTKPQKSYLVGFSV
modifications: Both subunits are N-glycosylated (secreted from CHO-K1 cells). They form a noncovalent heterodimer. The letters carry neither feature.
notes: Transiently expressed in CHO-K1 cells
